In the supplement of paper PMC9112550, “Optimization of the antimicrobial peptide Bac7 by deep mutational scanning” (BMC Biology, 2022):

Tested on: Escherichia coli TOP10
Test: shrunken log2 fold change of peptide-encoding DNA abundance (4.5 h post-induction vs induction); higher = less antimicrobial activity (less host growth inhibition)
Conditions: time post-induction: 4.5 h; library: site-saturation at positions 5, 18, 19, 20
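Note: peptides expressed intracellularly from a pBAD plasmid library in pooled LB shake-flask culture, induced with 0.3% L-arabinose, DNA abundance read by NGS, three biological replicates, DESeq2 with apeglm shrinkage.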

Sequence | shrunken log2 fold change
RRIRWRPPRLPRPRPRPWNCPRP | -0.116
RRIRFRPPRLPRPRPRPKGVPRP | 0.0142
RRIRFRPPRLPRPRPRPTPWPRP | 0.421
RRIRHRPPRLPRPRPRPGSHPRP | -0.226
RRIRHRPPRLPRPRPRPYIYPRP | -0.347
RRIRGRPPRLPRPRPRPMQGPRP | 0.0711
RRIRIRPPRLPRPRPRPQMSPRP | -0.0696
RRIRGRPPRLPRPRPRPGTGPRP | 0.84
RRIRTRPPRLPRPRPRPPMIPRP | -0.44
RRIRVRPPRLPRPRPRPIGCPRP | -0.0514
RRIRRRPPRLPRPRPRPWIRPRP | -0.298
RRIRTRPPRLPRPRPRPGLQPRP | -0.138
RRIRYRPPRLPRPRPRPAFPPRP | -0.139
RRIRERPPRLPRPRPRPMLIPRP | -0.266
RRIRARPPRLPRPRPRPFRQPRP | 0.0566
RRIRYRPPRLPRPRPRPRMTPRP | -0.131
RRIRRRPPRLPRPRPRPLRKPRP | 0.793
RRIRMRPPRLPRPRPRPQCVPRP | 0.039
RRIRFRPPRLPRPRPRPRDKPRP | -0.102
RRIRERPPRLPRPRPRPPHTPRP | -0.152
RRIRSRPPRLPRPRPRPIAVPRP | 0.22
RRIRARPPRLPRPRPRPRHVPRP | 0.162
RRIRCRPPRLPRPRPRPLMSPRP | -0.289
RRIRQRPPRLPRPRPRPHILPRP | -0.361
RRIRWRPPRLPRPRPRPFQKPRP | 0.0262

Sequence | shrunken log2 fold change
RRIRHRPPRLPRPRPRPQIMPRP | -0.682
RRIRCRPPRLPRPRPRPFAYPRP | 0.00718
RRIRIRPPRLPRPRPRPYHPPRP | -0.0475
RRIRMRPPRLPRPRPRPDWTPRP | 0.0113
RRIRGRPPRLPRPRPRPYRMPRP | -0.245
RRIRSRPPRLPRPRPRPKIVPRP | -0.265
RRIRGRPPRLPRPRPRPIRNPRP | -0.0262
RRIRWRPPRLPRPRPRPQYFPRP | -0.181
RRIRFRPPRLPRPRPRPRVKPRP | -0.154
RRIRDRPPRLPRPRPRPHSWPRP | 0.05
RRIRCRPPRLPRPRPRPIVNPRP | -0.239
RRIRGRPPRLPRPRPRPTPAPRP | 1.43
RRIRDRPPRLPRPRPRPKLGPRP | -0.000429
RRIRERPPRLPRPRPRPIYFPRP | -0.378
RRIRARPPRLPRPRPRPGHCPRP | 0.0986
RRIRIRPPRLPRPRPRPGNTPRP | -0.546
RRIRWRPPRLPRPRPRPHTFPRP | -0.0424
RRIRKRPPRLPRPRPRPDIAPRP | 1
RRIRWRPPRLPRPRPRPKKMPRP | 0.0841
RRIRNRPPRLPRPRPRPTLNPRP | -0.105
RRIRGRPPRLPRPRPRPINVPRP | -0.248
RRIRRRPPRLPRPRPRPNAAPRP | 0.794
RRIRIRPPRLPRPRPRPTRPPRP | 0.763
RRIRTRPPRLPRPRPRPQVCPRP | 0.0443
RRIRLRPPRLPRPRPRPAVTPRP | -0.0968

Sequence | shrunken log2 fold change
RRIRERPPRLPRPRPRPKASPRP | 0.0444
RRIRERPPRLPRPRPRPGSVPRP | 0.00838
RRIRHRPPRLPRPRPRPEDEPRP | 0.0969
RRIRQRPPRLPRPRPRPYKDPRP | -0.0988
RRIRMRPPRLPRPRPRPLELPRP | 0.337
RRIRLRPPRLPRPRPRPCANPRP | -0.212
RRIRHRPPRLPRPRPRPCCFPRP | -0.245
RRIRERPPRLPRPRPRPHQGPRP | 0.0963
RRIRDRPPRLPRPRPRPTVCPRP | 0.662
RRIRGRPPRLPRPRPRPHEVPRP | 0.431
RRIRMRPPRLPRPRPRPCCYPRP | -0.427
RRIRRRPPRLPRPRPRPTHHPRP | 0.8
RRIRCRPPRLPRPRPRPKTMPRP | -0.172
RRIRPRPPRLPRPRPRPVFCPRP | -0.113
RRIRLRPPRLPRPRPRPQLDPRP | 0.0655
RRIRYRPPRLPRPRPRPGKEPRP | 0.0011
RRIRFRPPRLPRPRPRPDEWPRP | 0.0983
RRIRTRPPRLPRPRPRPVHNPRP | -0.159
RRIRLRPPRLPRPRPRPGWEPRP | 0.14
RRIRARPPRLPRPRPRPTFTPRP | 0.51
RRIRKRPPRLPRPRPRPGGFPRP | 0.223
RRIRSRPPRLPRPRPRPQGDPRP | 0.36
RRIRARPPRLPRPRPRPHAPPRP | 0.54
RRIRSRPPRLPRPRPRPDRKPRP | -0.0693
RRIRQRPPRLPRPRPRPKAHPRP | 0.0165
